Data on 7 variants can be found in IntAct's records for PubMed 31515488.

First the molecules themselves.
B1: UV excision repair protein RAD23 homolog B (Homo sapiens), P54727 (parent)
chain: MQVTLKTLQQQTFKIDIDPEETVKALKEKIESEKGKDAFPVAGQKLIYAGKILNDDTALKEYKIDEKNFVVVMVTKPKAVSTPAPATTQQSAPASTTAVTSSTTTTVAQAPTPVPALAPTSTPASITPASATASSEPAPASAAKQEKPAEKPAETPVATSPTATDSTSGDSSRSNLFEDATSALVTGQSYENMVTEIMSMGYEREQVIAALRASFNNPDRAVEYLLMGIPGDRESQAVVDPPQAASTGAPQSSAVAAAAATTTATTTTTSSGGHPLEFLRNQPQFQQMRQIIQQNPSLLPALLQQIGRENPQLLQQISQHQEHFIQMLNEPVQEAGGQGGGGGGGSGGIAEAGSGHMNYIQVTPQEKEAIERLKALGFPEGLVIQAYFACEKNENLAANFLLQQNFDED
partner: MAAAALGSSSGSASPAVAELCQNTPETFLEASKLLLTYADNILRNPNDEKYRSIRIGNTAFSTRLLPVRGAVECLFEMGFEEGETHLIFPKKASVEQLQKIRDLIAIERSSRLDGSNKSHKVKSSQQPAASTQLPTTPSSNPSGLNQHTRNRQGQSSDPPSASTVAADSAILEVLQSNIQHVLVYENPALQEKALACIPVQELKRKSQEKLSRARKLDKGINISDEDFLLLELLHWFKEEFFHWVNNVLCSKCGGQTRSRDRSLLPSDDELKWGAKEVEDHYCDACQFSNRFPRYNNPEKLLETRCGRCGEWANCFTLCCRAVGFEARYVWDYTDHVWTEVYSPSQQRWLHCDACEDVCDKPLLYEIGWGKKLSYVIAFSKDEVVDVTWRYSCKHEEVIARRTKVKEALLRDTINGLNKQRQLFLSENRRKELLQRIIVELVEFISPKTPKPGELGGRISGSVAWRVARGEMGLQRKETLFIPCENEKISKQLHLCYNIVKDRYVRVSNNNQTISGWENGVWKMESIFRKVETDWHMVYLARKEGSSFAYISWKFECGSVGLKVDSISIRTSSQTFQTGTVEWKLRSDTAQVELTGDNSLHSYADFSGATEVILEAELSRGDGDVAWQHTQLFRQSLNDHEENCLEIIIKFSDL
B2: Low-density lipoprotein receptor class A domain-containing protein 1 (Homo sapiens), Q5T700 (parent)
chain: MNKVFPQGENGYTAAESKAHPGGEAGGGHLCCSRRGACLSASLLLLLATVAALIALVTILGLPSCTPGAQACITLTNRTGFLCHDQRSCIPASGVCDGVRTCTHGEDEDESLCRDVPQSLPHFLVAHCGDPASWIYSDQKCDGTNNCGDCSDELSPVTVCPPCGPGWWRCPSTFFKYCDCIPRHLCRDHVQHCSDWSDEYACPGP
partner: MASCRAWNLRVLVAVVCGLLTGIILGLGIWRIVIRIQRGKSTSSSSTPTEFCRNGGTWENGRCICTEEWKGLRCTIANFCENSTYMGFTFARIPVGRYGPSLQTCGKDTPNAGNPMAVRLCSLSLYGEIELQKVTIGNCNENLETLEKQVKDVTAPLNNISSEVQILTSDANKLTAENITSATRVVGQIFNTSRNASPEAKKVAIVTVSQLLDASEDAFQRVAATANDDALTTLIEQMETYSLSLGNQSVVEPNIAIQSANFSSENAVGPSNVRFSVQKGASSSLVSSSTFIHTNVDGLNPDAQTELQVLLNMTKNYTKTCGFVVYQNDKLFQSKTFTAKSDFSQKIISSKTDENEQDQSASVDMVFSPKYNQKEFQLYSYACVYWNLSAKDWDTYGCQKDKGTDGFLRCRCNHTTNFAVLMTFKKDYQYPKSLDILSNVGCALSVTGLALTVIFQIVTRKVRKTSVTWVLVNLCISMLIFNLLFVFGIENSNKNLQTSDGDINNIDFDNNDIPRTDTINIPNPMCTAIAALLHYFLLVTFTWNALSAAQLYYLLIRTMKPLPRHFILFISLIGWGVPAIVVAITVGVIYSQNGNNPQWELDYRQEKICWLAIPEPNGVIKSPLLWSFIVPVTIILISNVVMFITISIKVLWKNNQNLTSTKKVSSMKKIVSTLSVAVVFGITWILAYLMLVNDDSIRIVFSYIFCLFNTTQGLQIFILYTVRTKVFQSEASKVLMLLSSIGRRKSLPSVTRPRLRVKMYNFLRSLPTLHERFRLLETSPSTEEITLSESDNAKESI
B3: Proteasome subunit beta type-1 (Homo sapiens), P20618 (parent)
chain: MLSSTAMYSAPGRDLGMEPHRAAGPLQLRFSPYVFNGGTILAIAGEDFAIVASDTRLSEGFSIHTRDSPKCYKLTDKTVIGCSGFHGDCLTLTKIIEARLKMYKHSNNKAMTTGAIAAMLSTILYSRRFFPYYVYNIIGGLDEEGKGAVYSFDPVGSYQRDSFKAGGSASAMLQPLLDNQVGFKNMQNVEHVPLSLDRAMRLVKDVFISAAERDVYTGDALRICIVTKEGIREETVSLRKD
B4: Fas-activated serine/threonine kinase (Homo sapiens), Q14296-1 (parent)
chain: MRRPRGEPGPRAPRPTEGATCAGPGESWSPSPNSMLRVLLSAQTSPARLSGLLLIPPVQPCCLGPSKWGDRPVGGGPSAGPVQGLQRLLEQAKSPGELLRWLGQNPSKVRAHHYSVALRRLGQLLGSRPRPPPVEQVTLQDLSQLIIRNCPSFDIHTIHVCLHLAVLLGFPSDGPLVCALEQERRLRLPPKPPPPLQPLLRGGQGLEAALSCPRFLRYPRQHLISSLAEARPEELTPHVMVLLAQHLARHRLREPQLLEAIAHFLVVQETQLSSKVVQKLVLPFGRLNYLPLEQQFMPCLERILAREAGVAPLATVNILMSLCQLRCLPFRALHFVFSPGFINYISGTPHALIVRRYLSLLDTAVELELPGYRGPRLPRRQQVPIFPQPLITDRARCKYSHKDIVAEGLRQLLGEEKYRQDLTVPPGYCTDFLLCASSSGAVLPVRTQDPFLPYPPRSCPQGQAASSATTRDPAQRVVLVLRERWHFCRDGRVLLGSRALRERHLGLMGYQLLPLPFEELESQRGLPQLKSYLRQKLQALGLRWGPEGG
partner: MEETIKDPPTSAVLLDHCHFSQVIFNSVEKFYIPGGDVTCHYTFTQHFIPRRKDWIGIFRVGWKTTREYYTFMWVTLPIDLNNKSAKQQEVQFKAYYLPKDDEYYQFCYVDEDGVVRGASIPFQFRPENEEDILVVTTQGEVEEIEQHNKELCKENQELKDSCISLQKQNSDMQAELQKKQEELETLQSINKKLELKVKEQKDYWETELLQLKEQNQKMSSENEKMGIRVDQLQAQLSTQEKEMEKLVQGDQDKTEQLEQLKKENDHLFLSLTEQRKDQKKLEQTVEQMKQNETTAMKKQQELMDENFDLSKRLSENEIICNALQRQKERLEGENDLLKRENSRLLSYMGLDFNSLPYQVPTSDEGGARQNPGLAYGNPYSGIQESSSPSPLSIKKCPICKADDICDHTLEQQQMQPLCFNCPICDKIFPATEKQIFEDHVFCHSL
B5: KH domain-containing, RNA-binding, signal transduction-associated protein 2 (Homo sapiens), Q5VWX1 (parent)
chain: MEEEKYLPELMAEKDSLDPSFVHASRLLAEEIEKFQGSDGKKEDEEKKYLDVISNKNIKLSERVLIPVKQYPKFNFVGKLLGPRGNSLKRLQEETGAKMSILGKGSMRDKAKEEELRKSGEAKYAHLSDELHVLIEVFAPPGEAYSRMSHALEEIKKFLVPDYNDEIRQEQLRELSYLNGSEDSGRGRGIRGRGIRIAPTAPSRGRGGAIPPPPPPGRGVLTPRGSTVTRGALPVPPVARGVPTPRARGAPTVPGYRAPPPPAHEAYEEYGYDDGYGGEYDDQTYETYDNSYATQTQSVPEYYDYGHGVSEDAYDSYAPEEWATTRSSLKAPPQRSARGGYREHPYGRY
B6: Histone-lysine N-methyltransferase SMYD1 (Homo sapiens), Q8NB12 (parent)
chain: MTIGRMENVEVFTAEGKGRGLKATKEFWAADIIFAERAYSAVVFDSLVNFVCHTCFKRQEKLHRCGQCKFAHYCDRTCQKDAWLNHKNECSAIKRYGKVPNENIRLAARIMWRVEREGTGLTEGCLVSVDDLQNHVEHFGEEEQKDLRVDVDTFLQYWPPQSQQFSMQYISHIFGVINCNGFTLSDQRGLQAVGVGIFPNLGLVNHDCWPNCTVIFNNGNHEAVKSMFHTQMRIELRALGKISEGEELTVSYIDFLNVSEERKRQLKKQYYFDCTCEHCQKKLKDDLFLGVKDNPKPSQEVVKEMIQFSKDTLEKIDKARSEGLYHEVVKLCRECLEKQEPVFADTNIYMLRMLSIVSEVLSYLQAFEEASFYARRMVDGYMKLYHPNNAQLGMAVMRAGLTNWHAGNIEVGHGMICKAYAILLVTHGPSHPITKDLEAMRVQTEMELRMFRQNEFMYYKMREAALNNQPMQVMAEPSNEPSPALFHKKQ
partner: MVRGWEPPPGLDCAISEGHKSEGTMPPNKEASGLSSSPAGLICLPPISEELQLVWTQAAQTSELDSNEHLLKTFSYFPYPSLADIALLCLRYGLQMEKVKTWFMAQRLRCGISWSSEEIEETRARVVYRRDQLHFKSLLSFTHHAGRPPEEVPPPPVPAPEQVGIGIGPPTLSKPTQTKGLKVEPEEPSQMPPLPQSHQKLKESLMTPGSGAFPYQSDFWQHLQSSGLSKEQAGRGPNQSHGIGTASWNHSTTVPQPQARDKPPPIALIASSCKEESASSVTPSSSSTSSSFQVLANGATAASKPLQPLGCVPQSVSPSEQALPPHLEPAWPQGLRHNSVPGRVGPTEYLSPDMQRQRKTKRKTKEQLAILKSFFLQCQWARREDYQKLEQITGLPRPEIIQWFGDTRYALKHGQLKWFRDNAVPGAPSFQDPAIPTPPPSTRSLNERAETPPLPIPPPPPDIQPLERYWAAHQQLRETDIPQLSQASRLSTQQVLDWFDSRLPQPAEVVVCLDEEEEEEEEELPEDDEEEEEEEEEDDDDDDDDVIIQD
B7: Kinetochore protein NDC80 homolog (Homo sapiens), O14777 (parent)
chain: MKRSSVSSGGAGRLSMQELRSQDVNKQGLYTPQTKEKPTFGKLSINKPTSERKVSLFGKRTSGHGSRNSQLGIFSSSEKIKDPRPLNDKAFIQQCIRQLCEFLTENGYAHNVSMKSLQAPSVKDFLKIFTFLYGFLCPSYELPDTKFEEEVPRIFKDLGYPFALSKSSMYTVGAPHTWPHIVAALVWLIDCIKIHTAMKESSPLFDDGQPWGEETEDGIMHNKLFLDYTIKCYESFMSGADSFDEMNAELQSKLKDLFNVDAFKLESLEAKNRALNEQIARLEQEREKEPNRLESLRKLKASLQGDVQKYQAYMSNLESHSAILDQKLNGLNEEIARVELECETIKQENTRLQNIIDNQKYSVADIERINHERNELQQTINKLTKDLEAEQQKLWNEELKYARGKEAIETQLAEYHKLARKLKLIPKGAENSKGYDFEIKFNPEAGANCLVKYRAQVYVPLKELLNETEEEINKALNKKMGLEDTLEQLNAMITESKRSVRTLKEEVQKLDDLYQQKIKEAEEEDEKCASELESLEKHKHLLESTVNQGLSEAMNELDAVQREYQLVVQTTTEERRKVGNNLQRLLEMVATHVGSVEKHLEEQIAKVDREYEECMSEDLSENIKEIRDKYEKKATLIKSSEE

Variants of B1 are the subject of the first assay. Conditions: with ngly1_human NGLY1, Q96IV0.
For the variant P119H, the “effect of a mutation on the interaction” value is “with no effect”.

Variants of B2 are the subject of another assay. Conditions: with agrg7_human ADGRG7, Q96K78.
E108K: the “effect of a mutation on the interaction” value is listed as “with no effect”.

Another assay covers variants of B3. The following applies: with KRT15, P19012.
KRT15, P19012, sequence (P19012 whole entry): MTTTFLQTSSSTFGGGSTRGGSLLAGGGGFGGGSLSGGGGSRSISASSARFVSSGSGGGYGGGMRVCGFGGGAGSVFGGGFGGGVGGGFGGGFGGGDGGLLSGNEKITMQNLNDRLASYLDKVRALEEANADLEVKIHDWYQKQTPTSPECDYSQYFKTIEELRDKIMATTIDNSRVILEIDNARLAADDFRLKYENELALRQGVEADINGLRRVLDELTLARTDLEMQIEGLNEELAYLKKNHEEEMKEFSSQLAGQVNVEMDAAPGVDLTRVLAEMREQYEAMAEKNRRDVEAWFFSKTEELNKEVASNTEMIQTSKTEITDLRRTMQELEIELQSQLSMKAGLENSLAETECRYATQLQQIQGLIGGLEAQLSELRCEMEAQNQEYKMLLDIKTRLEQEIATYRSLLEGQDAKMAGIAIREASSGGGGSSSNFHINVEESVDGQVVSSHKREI
Take P11A: the “effect of a mutation on the interaction” value is “with no effect”.

In another assay the parent is B3. Conditions: with traf1_human TRAF1, Q13077.
traf1_human TRAF1, Q13077, sequence (Q13077 whole entry): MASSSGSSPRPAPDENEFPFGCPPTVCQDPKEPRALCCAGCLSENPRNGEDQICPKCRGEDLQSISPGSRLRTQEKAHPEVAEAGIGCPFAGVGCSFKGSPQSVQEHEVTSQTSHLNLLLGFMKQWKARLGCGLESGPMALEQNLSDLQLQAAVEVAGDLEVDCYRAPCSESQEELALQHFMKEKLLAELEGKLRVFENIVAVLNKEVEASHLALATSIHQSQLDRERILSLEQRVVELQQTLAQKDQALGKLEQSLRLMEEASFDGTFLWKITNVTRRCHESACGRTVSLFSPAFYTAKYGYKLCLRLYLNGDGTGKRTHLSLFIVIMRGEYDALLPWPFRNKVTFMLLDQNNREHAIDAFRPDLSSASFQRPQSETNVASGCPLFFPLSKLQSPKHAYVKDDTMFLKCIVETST
Consider P11A, for which the “effect of a mutation on the interaction” value is “with no effect”.

The variants in a further assay derive from B4. The following applies: with caco2_human CALCOCO2, Q13137.
V424L: the “effect of a mutation on the interaction” value is “with no effect”.

Variants of B5 are the subject of the next assay. Conditions: with ews_human EWSR1, Q01844.
ews_human EWSR1, Q01844, sequence (Q01844 whole entry): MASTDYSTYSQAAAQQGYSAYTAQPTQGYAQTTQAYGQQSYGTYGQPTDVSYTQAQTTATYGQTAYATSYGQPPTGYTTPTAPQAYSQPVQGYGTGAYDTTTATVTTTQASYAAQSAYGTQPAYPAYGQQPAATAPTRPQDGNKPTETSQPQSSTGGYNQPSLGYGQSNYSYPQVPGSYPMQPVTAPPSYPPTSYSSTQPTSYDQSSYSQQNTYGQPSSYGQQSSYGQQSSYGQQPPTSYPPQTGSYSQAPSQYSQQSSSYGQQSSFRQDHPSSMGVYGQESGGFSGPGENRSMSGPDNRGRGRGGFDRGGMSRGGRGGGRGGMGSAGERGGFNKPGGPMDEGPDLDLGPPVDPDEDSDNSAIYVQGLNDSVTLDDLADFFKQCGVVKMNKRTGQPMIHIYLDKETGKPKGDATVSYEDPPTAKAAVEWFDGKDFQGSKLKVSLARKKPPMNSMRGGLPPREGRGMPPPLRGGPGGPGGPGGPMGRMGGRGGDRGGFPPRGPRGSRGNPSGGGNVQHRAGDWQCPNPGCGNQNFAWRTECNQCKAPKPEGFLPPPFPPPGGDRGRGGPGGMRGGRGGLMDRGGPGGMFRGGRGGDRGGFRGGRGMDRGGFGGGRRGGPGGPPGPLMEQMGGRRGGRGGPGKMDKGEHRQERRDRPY
With P333L, the “effect of a mutation on the interaction” value is listed as “with no effect”.

In another assay the parent is B5. The following applies: with ptk6_human PTK6, Q13882.
As to P333L, the “effect of a mutation on the interaction” value is reported as “with no effect”.

Variants of B5 are the subject of a further assay. The following applies: with hbaz_human HBZ.
Consider P333L, for which the “effect of a mutation on the interaction” value is reported as “with no effect”.

The variants in a further assay derive from B6. Conditions: with homez_human HOMEZ.
On to R441W, for which the “effect of a mutation on the interaction” value is reported as “with no effect”.

In a further assay the parent is B7. Conditions: with amol2_human AMOTL2, Q9Y2J4.
amol2_human AMOTL2, Q9Y2J4, sequence (Q9Y2J4 whole entry): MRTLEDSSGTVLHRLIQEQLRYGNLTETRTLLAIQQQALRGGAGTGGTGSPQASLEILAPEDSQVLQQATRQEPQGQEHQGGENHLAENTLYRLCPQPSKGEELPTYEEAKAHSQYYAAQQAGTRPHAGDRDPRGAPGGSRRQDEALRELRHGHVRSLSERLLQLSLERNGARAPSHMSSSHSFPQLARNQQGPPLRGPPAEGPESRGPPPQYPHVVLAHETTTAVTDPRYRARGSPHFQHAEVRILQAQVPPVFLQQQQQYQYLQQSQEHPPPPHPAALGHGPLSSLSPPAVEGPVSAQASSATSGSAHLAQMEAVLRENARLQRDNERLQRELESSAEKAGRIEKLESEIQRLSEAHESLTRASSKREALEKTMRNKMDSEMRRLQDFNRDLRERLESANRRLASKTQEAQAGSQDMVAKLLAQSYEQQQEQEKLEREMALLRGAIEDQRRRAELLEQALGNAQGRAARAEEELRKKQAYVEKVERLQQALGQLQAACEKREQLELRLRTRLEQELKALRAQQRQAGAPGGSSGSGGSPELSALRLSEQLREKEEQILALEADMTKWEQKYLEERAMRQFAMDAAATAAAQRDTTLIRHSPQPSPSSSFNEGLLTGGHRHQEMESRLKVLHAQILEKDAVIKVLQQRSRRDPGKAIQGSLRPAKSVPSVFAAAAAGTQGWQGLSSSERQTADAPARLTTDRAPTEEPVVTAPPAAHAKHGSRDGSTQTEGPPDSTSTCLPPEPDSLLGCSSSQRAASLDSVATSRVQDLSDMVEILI
For E348D, the “effect of a mutation on the interaction” value is “with no effect”.

The variants in the next assay derive from B7. Conditions: with txlna_human TXLNA.
Turning to E348D, the “effect of a mutation on the interaction” value is “with no effect”.

Variants of B7 are the subject of the next assay. Conditions: with atf4_human ATF4, P18848.
atf4_human ATF4, P18848, sequence (P18848 whole entry): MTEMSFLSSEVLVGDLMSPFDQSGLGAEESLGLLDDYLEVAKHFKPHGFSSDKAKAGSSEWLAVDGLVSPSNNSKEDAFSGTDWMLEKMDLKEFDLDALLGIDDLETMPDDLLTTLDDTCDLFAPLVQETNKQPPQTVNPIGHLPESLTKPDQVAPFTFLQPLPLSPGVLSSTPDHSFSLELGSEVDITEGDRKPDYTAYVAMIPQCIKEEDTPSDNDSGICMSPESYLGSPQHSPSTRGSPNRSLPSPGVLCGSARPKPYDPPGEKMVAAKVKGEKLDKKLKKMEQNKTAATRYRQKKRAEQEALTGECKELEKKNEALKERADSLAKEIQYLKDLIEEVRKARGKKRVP
Take E348D: the “effect of a mutation on the interaction” value is “with no effect”.

In the next assay the parent is B7. The following applies: with tnip1_human TNIP1, Q15025.
tnip1_human TNIP1, Q15025, sequence (Q15025 whole entry): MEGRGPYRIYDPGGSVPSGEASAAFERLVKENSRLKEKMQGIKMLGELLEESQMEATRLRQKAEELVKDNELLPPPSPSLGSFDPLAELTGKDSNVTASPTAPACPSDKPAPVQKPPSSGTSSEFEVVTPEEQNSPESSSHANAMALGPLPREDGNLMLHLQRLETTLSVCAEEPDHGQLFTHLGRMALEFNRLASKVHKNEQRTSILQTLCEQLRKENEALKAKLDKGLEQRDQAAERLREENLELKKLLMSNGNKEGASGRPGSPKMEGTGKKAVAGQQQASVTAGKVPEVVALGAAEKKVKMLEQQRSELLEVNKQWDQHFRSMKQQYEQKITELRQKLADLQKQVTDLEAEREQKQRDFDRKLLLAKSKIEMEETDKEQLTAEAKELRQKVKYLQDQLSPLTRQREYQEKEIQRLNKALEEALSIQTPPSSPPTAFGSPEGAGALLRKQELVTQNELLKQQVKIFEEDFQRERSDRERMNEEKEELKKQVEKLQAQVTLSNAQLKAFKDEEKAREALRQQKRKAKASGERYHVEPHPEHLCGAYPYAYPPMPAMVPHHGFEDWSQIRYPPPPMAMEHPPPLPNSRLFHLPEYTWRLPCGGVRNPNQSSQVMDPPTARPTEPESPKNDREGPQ
As for E348D, the “effect of a mutation on the interaction” value is “with no effect”.
